Assays:
Test in all cases: holdup assay
Parameters in all cases: key: below the threshold = too weak to quantify, mostly under pKd 3.1 to 4
Details in all cases: plain residues with an end cap or a label only (N-terminal biotin on a linker: ado-ado)
GRIP2_5, Q9C0E4 = target: GRIP2_5, Q9C0E4
FRMPD2_3, Q68DX3 = target: FRMPD2_3, Q68DX3
LIMK2, P53671 = target: LIMK2, P53671
APBA2_2, Q99767 = target: T1, APBA2_2, Q99767
T1 sequence (Q99767 654-744, limits assumed, looked up): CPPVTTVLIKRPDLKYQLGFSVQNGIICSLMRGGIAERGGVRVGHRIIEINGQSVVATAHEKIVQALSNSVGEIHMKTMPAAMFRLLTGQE

SHANK1, Q9Y566 = target: T2, SHANK1, Q9Y566
T2 sequence (Q9Y566 658-767, limits assumed, looked up): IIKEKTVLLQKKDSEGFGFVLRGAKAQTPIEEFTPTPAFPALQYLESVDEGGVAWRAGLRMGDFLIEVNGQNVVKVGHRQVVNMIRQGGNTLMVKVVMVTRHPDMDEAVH

Inadl_1, Q8NI35 = target: Inadl_1, Q8NI35
Chain of Inadl_1, Q8NI35 (Q8NI35 113-229): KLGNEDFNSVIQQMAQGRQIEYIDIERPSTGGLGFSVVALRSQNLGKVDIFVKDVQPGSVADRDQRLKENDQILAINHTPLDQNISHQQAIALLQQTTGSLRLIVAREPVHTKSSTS

MAGI3_2, Q5TCQ9 = target: MAGI3_2, Q5TCQ9
Chain of MAGI3_2, Q5TCQ9 (Q5TCQ9 398-503): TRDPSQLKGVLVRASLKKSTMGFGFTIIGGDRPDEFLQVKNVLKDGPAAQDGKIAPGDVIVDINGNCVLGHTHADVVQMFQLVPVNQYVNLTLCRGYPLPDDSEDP

LNX2_2, Q8N448 = target: T3, LNX2_2, Q8N448
T3 sequence (Q8N448 334-432, limits assumed, looked up): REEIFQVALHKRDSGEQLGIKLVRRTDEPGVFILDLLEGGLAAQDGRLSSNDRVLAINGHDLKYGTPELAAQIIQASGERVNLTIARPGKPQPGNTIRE

Inadl_8, Q8NI35 = target: Inadl_8, Q8NI35
Chain of Inadl_8, Q8NI35 (Q8NI35 1425-1530): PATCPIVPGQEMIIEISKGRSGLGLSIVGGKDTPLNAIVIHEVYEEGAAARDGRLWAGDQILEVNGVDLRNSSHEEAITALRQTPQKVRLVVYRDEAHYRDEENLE

PTPN3, P26045 = target: PTPN3, P26045
Chain of PTPN3, P26045 (P26045 505-587): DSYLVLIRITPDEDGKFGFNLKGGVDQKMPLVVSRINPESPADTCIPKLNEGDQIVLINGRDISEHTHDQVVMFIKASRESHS

IL16_3, Q14005 = target: IL16_3, Q14005
Chain of IL16_3, Q14005 (Q14005 1107-1207): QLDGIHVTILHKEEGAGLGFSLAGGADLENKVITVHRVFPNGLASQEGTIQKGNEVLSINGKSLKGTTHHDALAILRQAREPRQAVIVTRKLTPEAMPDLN

GRIP2_3, Q9C0E4 = target: GRIP2_3, Q9C0E4
Chain of GRIP2_3, Q9C0E4 (Q9C0E4 238-339): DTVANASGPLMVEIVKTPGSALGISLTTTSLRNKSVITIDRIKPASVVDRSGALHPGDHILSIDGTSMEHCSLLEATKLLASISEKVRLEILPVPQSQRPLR

DLG3_2, Q92796 = target: T4, DLG3_2, Q92796
T4 sequence (Q92796 221-321, limits assumed, looked up): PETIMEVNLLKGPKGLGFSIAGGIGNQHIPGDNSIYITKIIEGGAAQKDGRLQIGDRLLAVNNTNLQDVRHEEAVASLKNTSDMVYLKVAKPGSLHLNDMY

PDZD7_3, Q9H5P4 = target: T5, PDZD7_3, Q9H5P4
T5 sequence (Q9H5P4 857-944, limits assumed, looked up): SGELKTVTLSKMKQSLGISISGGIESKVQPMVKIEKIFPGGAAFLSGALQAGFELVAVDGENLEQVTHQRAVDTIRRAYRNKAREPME

DFNB31_2, Q9P202 = target: T6, DFNB31_2, Q9P202
T6 sequence (Q9P202 274-371, limits assumed, looked up): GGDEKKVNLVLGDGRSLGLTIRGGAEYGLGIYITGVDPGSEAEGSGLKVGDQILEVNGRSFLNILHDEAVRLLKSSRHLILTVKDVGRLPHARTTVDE

MPP2, Q14168 = target: T7, MPP2, Q14168
T7 sequence (Q14168 180-250, limits assumed, looked up): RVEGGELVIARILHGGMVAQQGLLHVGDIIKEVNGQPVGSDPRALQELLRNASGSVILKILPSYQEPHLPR

CASK, O14936 = target: CASK, O14936
Chain of CASK, O14936 (O14936 487-570): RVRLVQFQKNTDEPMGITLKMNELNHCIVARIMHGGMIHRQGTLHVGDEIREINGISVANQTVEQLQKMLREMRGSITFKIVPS

TJP3_3, O95049 = target: T8, TJP3_3, O95049
T8 sequence (O95049 375-456, limits assumed, looked up): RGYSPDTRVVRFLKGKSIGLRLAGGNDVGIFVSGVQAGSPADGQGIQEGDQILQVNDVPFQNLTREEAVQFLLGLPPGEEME

MPDZ_12, O75970 = target: T9, MPDZ_12, O75970
T9 sequence (O75970 1857-1958, limits assumed, looked up): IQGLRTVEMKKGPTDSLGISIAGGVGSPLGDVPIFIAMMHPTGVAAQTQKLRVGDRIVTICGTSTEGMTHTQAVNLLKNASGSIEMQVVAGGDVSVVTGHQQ

TJP1_3, Q07157 = target: TJP1_3, Q07157
Chain of TJP1_3, Q07157 (Q07157 416-512): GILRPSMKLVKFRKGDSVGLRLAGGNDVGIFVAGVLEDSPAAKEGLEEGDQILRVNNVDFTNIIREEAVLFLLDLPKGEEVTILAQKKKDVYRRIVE

CARD11, Q9BXL7 = target: T10, CARD11, Q9BXL7
T10 sequence (Q9BXL7 662-765, limits assumed, looked up): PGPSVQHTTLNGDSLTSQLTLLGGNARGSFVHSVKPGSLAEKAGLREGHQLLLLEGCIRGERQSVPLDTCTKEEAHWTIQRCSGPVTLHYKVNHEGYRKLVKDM

MAGI2_4, Q86UL8 = target: MAGI2_4, Q86UL8
Chain of MAGI2_4, Q86UL8 (Q86UL8 772-865): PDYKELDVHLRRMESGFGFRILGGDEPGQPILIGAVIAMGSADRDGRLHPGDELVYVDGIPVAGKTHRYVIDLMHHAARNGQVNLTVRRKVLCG

LDB3, O75112 = target: LDB3, O75112
Chain of LDB3, O75112 (O75112 1-94): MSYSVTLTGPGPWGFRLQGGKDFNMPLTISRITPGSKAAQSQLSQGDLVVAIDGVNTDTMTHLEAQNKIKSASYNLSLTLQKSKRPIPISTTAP

MAGI2_6, Q86UL8 = target: MAGI2_6, Q86UL8
Chain of MAGI2_6, Q86UL8 (Q86UL8 1141-1229): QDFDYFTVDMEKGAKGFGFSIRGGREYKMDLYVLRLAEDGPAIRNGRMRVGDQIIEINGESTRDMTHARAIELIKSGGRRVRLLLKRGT

GRIP2_4, Q9C0E4 = target: GRIP2_4, Q9C0E4
Chain of GRIP2_4, Q9C0E4 (Q9C0E4 446-548): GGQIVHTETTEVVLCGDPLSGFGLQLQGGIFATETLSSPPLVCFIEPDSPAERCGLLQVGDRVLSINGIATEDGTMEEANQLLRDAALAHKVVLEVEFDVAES

DLG4_1, P78352 = target: DLG4_1, P78352
Chain of DLG4_1, P78352 (P78352 62-152): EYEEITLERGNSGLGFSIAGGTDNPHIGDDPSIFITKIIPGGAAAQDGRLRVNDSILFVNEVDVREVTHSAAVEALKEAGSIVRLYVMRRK

DLG3_3, Q92796 = target: T11, DLG3_3, Q92796
T11 sequence (Q92796 374-475, limits assumed, looked up): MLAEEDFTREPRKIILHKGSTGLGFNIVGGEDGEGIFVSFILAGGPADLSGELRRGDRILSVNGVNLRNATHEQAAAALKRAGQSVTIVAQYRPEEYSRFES

GRIP2_6, Q9C0E4 = target: GRIP2_6, Q9C0E4
Chain of GRIP2_6, Q9C0E4 (Q9C0E4 648-740): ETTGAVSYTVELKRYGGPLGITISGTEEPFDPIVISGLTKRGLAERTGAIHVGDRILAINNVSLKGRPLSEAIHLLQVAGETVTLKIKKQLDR

Chain of FRMPD2_3, Q68DX3 (Q68DX3 1073-1166): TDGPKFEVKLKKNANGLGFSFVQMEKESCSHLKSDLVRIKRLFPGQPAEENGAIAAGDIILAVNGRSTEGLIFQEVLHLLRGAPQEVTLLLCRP
Chain of GRIP2_5, Q9C0E4 (Q9C0E4 544-642): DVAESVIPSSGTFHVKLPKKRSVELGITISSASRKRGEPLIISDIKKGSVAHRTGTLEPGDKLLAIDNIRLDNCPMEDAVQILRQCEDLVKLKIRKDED
Chain of LIMK2, P53671 (P53671 143-248): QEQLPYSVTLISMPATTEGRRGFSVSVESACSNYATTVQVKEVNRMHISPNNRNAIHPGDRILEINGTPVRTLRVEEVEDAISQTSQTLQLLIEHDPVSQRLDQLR

Binder	pKd (GRIP2_5, Q9C0E4)	pKd (FRMPD2_3, Q68DX3)	pKd (LIMK2, P53671)	pKd (APBA2_2, Q99767)	pKd (SHANK1, Q9Y566)	pKd (Inadl_1, Q8NI35)	pKd (MAGI3_2, Q5TCQ9)	pKd (LNX2_2, Q8N448)	pKd (Inadl_8, Q8NI35)	pKd (PTPN3, P26045)	pKd (IL16_3, Q14005)	pKd (GRIP2_3, Q9C0E4)	pKd (DLG3_2, Q92796)	pKd (PDZD7_3, Q9H5P4)	pKd (DFNB31_2, Q9P202)	pKd (MPP2, Q14168)	pKd (CASK, O14936)	pKd (TJP3_3, O95049)	pKd (MPDZ_12, O75970)	pKd (TJP1_3, Q07157)	other results
NLSIEKETKL [ASNSD1, Q9NWL6]	below the threshold	below the threshold	below the threshold	below the threshold	4.52	below the threshold	below the threshold	below the threshold	below the threshold	5.21	below the threshold	below the threshold	4.24	4.68	3.94	below the threshold	below the threshold	below the threshold	3.56	below the threshold	pKd (CARD11, Q9BXL7): below the threshold; pKd (MAGI2_4, Q86UL8): below the threshold; pKd (LDB3, O75112): below the threshold; pKd (MAGI2_6, Q86UL8): 3.88; pKd (GRIP2_4, Q9C0E4): below the threshold; pKd (DLG4_1, P78352): below the threshold; pKd (DLG3_3, Q92796): below the threshold; pKd (GRIP2_6, Q9C0E4): below the threshold
GQEEQVTTRL [TRPC5, Q9UL62]	below the threshold	below the threshold	below the threshold	below the threshold	5.61	below the threshold	below the threshold	below the threshold	below the threshold	4.54	below the threshold	below the threshold	3.97	4.89	below the threshold	below the threshold	below the threshold	below the threshold	below the threshold	below the threshold	pKd (CARD11, Q9BXL7): below the threshold; pKd (MAGI2_4, Q86UL8): below the threshold; pKd (LDB3, O75112): below the threshold; pKd (MAGI2_6, Q86UL8): 3.59; pKd (GRIP2_4, Q9C0E4): below the threshold; pKd (DLG4_1, P78352): below the threshold; pKd (DLG3_3, Q92796): below the threshold; pKd (GRIP2_6, Q9C0E4): below the threshold

Source: publication PMC9482650, “Quantitative fragmentomics allow affinity mapping of interactomes” (Nature Communications, 2022)
